The values that follow are results of earlier work, collected in paper PMC3082853.

For the data set, the target named is FepA (Escherichia coli) (UniProt P05825).
Chain of UniProt P05825 (P05825 23-746): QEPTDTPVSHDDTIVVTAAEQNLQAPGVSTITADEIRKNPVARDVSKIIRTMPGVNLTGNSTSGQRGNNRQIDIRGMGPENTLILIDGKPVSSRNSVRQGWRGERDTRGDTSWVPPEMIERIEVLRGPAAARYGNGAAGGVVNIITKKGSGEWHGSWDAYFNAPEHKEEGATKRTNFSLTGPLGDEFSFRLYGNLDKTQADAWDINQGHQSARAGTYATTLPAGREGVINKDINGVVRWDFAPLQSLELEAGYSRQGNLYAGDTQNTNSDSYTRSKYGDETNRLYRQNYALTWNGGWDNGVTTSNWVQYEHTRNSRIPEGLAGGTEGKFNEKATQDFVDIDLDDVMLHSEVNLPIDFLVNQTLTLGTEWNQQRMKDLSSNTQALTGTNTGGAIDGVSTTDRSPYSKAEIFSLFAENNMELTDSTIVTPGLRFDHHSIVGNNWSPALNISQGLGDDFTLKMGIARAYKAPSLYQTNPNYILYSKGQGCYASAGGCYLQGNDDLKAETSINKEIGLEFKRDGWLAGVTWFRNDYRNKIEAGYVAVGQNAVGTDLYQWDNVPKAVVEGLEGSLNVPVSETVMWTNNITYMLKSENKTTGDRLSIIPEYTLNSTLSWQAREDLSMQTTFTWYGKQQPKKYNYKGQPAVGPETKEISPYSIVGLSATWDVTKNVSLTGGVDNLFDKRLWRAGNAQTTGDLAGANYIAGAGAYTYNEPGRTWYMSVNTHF

As for colicin B (from UniProt P05819), the Kd was 185 nM.

A word on the Kd: it is the equilibrium constant for the complex coming apart.
